# Source: the DeepSol protein solubility set
# Assay: soluble on expression in E. coli; label from the status in PepcDB or PDB records
row,Sequence,soluble on expression in E. coli
1,GPGSMHKDGPRLWDDTLVEAERIATDSKARYLQLPTPDREAEMQRTRSQFFLLLRERVRNTYLRRISKFNPGEPLTWKYISGRKKASLPSPTSMLLGDGQHTYKTARRAANALNRIFLPFHPSHKAVRFSKGINRQSASLNINASFLFGQQNNNESAATSTSGSSLPSSSESQDKNEAATTSGLVAHLHSPLDAPFNRTELLAALRNTPYGKAPGPDEVYSEALRHISSKGLRFLLRCINHSWTTGTIPVEWRRATIVPLLKPGKSPELLESYRPISLTSIVSKVAEKMVLKRLLWVWTPHPHQYAYRSMRTTTMQLAHLIHDVEHNRNHYFQVSLPKKSGIGNQLHYRPHRTLLVLVDFSKAFDSIDHRVLSRLLANIPGVNCRRWLRNFLCGRYAKTRVGHRHSDRRPMLRGVPQGSVL,not soluble
2,QDSTSDLIPAPPLSKVPLQQNFQDNQFHGKWYVVGLAGNRILRDDQHPMNMYATIYELKEDKSYNVTSVISSHKKCEYTIATFVPGSQPGEFTLGNIKSYGDKTSYLVRVVSTDYNQYAVVFFKLAEDNAEFFAITIYGRTKELASELKENFIRFSKSLGLPENHIVFPVPIDQCIDG,soluble
3,SSIEFLAVEKQKIIAKETLELYAKIAGRIGMYPVKTQLADLSFKVLDPKNFNNTLSKINQQKVFYDNEWGNFKKQLEEMLEQNQIEYRLE,not soluble
4,MNLGDLTNFVEKPLAAVSNIVNTPNSAGRYRPFYLRNLLDAVQGRNLNDAVKGKVVLITGGSSGIGAAAAKKIAEAGGTVVLVARTLENLENVANDIRAIRGNGGTAHVYPCDLSDMDAIAVMADQVLGDLGGVDILINNAGRSIRRSLELSYDRIHDYQRTMQLNYLGAVQLILKFIPGMRERHFGHIVNVSSVGVQTRAPRFGAYIASKAALDSLCDALQAETVHDNVRFTTVHMALVRTPMISPTTIYDKFPTLTPDQAAGVITDAIVHRPRRASSPFGQFAAVADAVNPAVMDRVRNRAFNMFGDSSAAKGSESQTDTSELDKRSETFVRATRGIHW,soluble
5,MKEMTGLHSLVSIENFIKQHKFSFIYISRPGCTVCHAVLPQLRIVLDQFPNIKLGHINADDVAEVAGRFSVFTVPVLLLFIDGTEFLREARFVHFEQLEQKLKRVYRLYEGE,not soluble
6,MKEKIPFYNEKEFNEMMKKTKKGTFSGWYIINPENNSVEFSGSFNRQFKLNKPIIPVNTEYVTRKEFNEYKDSNDQRLIKIETTLTAQGEQINKLTQTVEKQGEQIRELQVEQKAQGEQIKAQGETLKLILQTLQKMSDRLDKIDPPKLEHHHHHH,not soluble
7,MPEPTPTAYPVRLDELINAIKRVHSDVLDQLSDAVLAAEHLGEIADHLIGHFVDQARRSGASWSDIGKSMGVTKQAAQKRFVPRAEATTLDSNQGFRRFTPRARNAVVAAQNAAHGAASSEITPDHLLLGVLTDPAALATALLQQQEIDIATLRTAVTLPPAVTEPPQPIPFSGPARKVLELTFREALRLGHNYIGTEHLLLALLELEDGDGPLHRSGVDKSRAEADLITTLASLTGANAAGATDAGATDAG,soluble
8,MDQKEAPSFTEASVHDPSVIKVEDTFYVFGSHLAAAKTEDLRNWTQIATHVHEGNPLIPNVFVELAEAFEWANSNTLWAADVIQLEDGRFYMYYNACQGDAPRSALGVAVADDIEGPYENLGVFLKSGMWGEESPDGTIYDANVHPNAIDPHVFFDEEGKLWMVYGSYSGGIFILEMDPDTGFPLPGQGYGTHLMGGNHSRIEAPYIHYDKETEYYYLYVTFGGLDSTGGYNMRVARSKQPDGPYVDGEGHLMSEVRGAPGTLFDDASIEPYGVKQMGNFLFKRELGERGTGYVSPGHNSVYYDDEVDKIFLFFHTRFPERGEAHEIRVHQMFMNRKGWPVIAPYRYTGESLEKVKAKEVIGDYQWINHGKEISAEIKESVTVRLEKNHKVLGDVTGKWKKVGDYHVELQIDGETYYGVFLRQWDPVAEREVMTFTALSEEGIAIWGSQLEEKTDNEIVDAVYDDLTLEGTIISDVELPTRGMRQTTIAWSSSHEEVLSSSGKVNRPEIGEDDVVVSLTATISKGSAERIKTFELVVPGQTEGGLVAHYPLNGTLENAVDDARFGSGTVTGNRIDNPGGTIAFEQGIDGEAAVFDGTTGIRLPNGLISRNTYTVSFWLNPEQLTEFTTAFFAARSEHHWLSFVPRGHSGMNHDTMLWAGSAQWYDAGTGVKLPVGEWSHVAFSVDNGEIVIYLNGEERFRGENFPNLFTTPNAYFALGVNHWDAPFQGMIDELRIYDGVALTREEIVHLAKQKLEHHHHHH,soluble
9,MGSDKIHHHHHHMDGREIELKLALAPEDLARIAQRPCLSAGRLAEPTSKRLSSIYYDTSDHILASQGIAVRVRRTGSGFVQTVKTAGTSVSGLFDRDEWEVPLASPDLDAEQLRLTGLAAFADGELADLLTPVFSTEVDRVLIRLGGEGWEAEVALDRGALVVGDRREEISEVELELVSGTPAHLFRLATHIQAETAARPLCLSKSERGYSLAAGKTAPVVKAKAPILTPAMTVEESFRAIARACLEHLMLNERCLLATEAGEAIHQMRVAMRRMRSAIKVFKAVTEGPDLERIKDDLRWLLAHLGPARDADVFLSEIVDPVLAAHPGNAGLIALRAHWRKDRETKLAAAISAVKSKRYATMTLNLGRWVETGDWLTPSHGGARRRLAEPIATFAAGRVGKVVTRLLKEGGETLSRLSPEQRHAVRIRGKQVRYAGEFFASLVPRKSTKVYLSELAELQDVLGKLNDIAVAGPKLSGRGAGAGSSRAAGLIAGWHQSRRATLLNDADKCWKRWRALPLPWDEK,not soluble
10,MITGETEPACVEDASQLAEQRNGAPVMEAGCAAVPVEANATKRGYWRQRTLHSWFIGRKPQRTCIAVDIDEVLAFFVPELCAFHNKRYGTRLQATDFHSYRFAEVWGGTDTDAIRKVHEFFRTPAFQELQPIPGAKQVLQSRLARFRFVVVTSRQLVIEQETRAWLDKHFSGIFEAIYLGNQWALHPNGEHGTGVGSAAQEPQRLFANRRRKSQVCKACGAAVLIDDLPHNLLDCSENGVFGVLFDFQGQYGWSKSPAFESKDIAVVHSWEAVGELLDRL,not soluble
11,MKSACSIITASIVLYKSKPDIIRDVITSFFSDTVTKKKLILIDNSPTDSLRVLQEERPEDIQYFFNNRNIGFGSAHNIGIREAARFNPSYHLILNPDVQFGPEVVPTLASYMDENPDIGLLMPQVYYPNGELQHLCKLFPRPWDVMLRRFVPYRSYRERNNERFELRNWSYDTIQDIPSLSGCFMFARMDILREVGGFDERFFMYAEDLDLCRRIGQVSRTVFFPKVSIMHTYAKGSYHLEHHHHHH,soluble
12,LGECLADLAVDALIDEAELSPKPALVDRRGNGAHADLHLGLMQASALSLWPCFKEMADAAQRHGRIDARLRGVLGQLGRDGEAAMLRTTEGVNTHRGAIWALGLLVAAAALEPRRTQAGEVAARAGRIALLDDPAAAIGDSHGERVRRRYGVGGAREEARLCFPRAVRHGLPQLWRSREGGAGEQNARLDALLAIMSVLDDTCVLHRAGRVGLAAMQDGARAVLAAGGSASLAGRRRLCELDRRLLALNASPGGAADLLAACLFLDRLPAVSGGWAGSL,not soluble
13,MPEPHPAPQPYTVAALYQFRALPDPAALRAELLALGERLELCGTLIVADEGINGTVAGSAAAIAELHAFLLASGFDRLEYKESQASEKPFKRYKVRLKKEIVTLGVPVAPREQVGTYLDPQAWNDLLADPEVIVVDTRNRYEVKAGTFQGAVDPEIDSFREFPAWVDEHLAGAEGKKIAMFCTGGIRCEKSTSLLLQKGFQDVYHLKGGILKYLEDVPQAQSRWDGECFVFDGRVTVGHGLQEGDAVMCHSCGWPLTAQERAHPQFEEGVSCEHCFDETTDVQKAAFRERQRMYEAGHLTLEHHHHHH,not soluble
14,MAHHHHHHSLRVVSGEFGGRPLKTLDGKITRPTSDKVRGAIFNMIGPYFNGGRVLDLFAGSGGLAIEAVSRGMSAAVLVEKNRKAQAIIQDNIIMTKAENRFTLLKMEAERAIDCLTGRFDLVFLDPPYAKETIVATIEALAAKNLLSEQVMVVCETDKTVLLPKEIATLGIWKEKIYGISKVTVYVNEG,soluble
15,MPFTLGQRWISDTESELGLGTVVAVDARTVTLLFPSTGENRLYARSDSPVTRVMFNPGDTITSHDGWQMQVEEVKEENGLLTYIGTRLDTEESGVALREVFLDSKLVFSKPQDRLFAGQIDRMDRFALRYRARKYSSEQFRMPYSGLRGQRTSLIPHQLNIAHDVGRRHAPRVLLADEVGLGKTIEAGMILHQQLLSGAAERVLIIVPETLQHQWLVEMLRRFNLRFALFDDERYAEAQHDAYNPFDTEQLVICSLDFARRSKQRLEHLCEAEWDLLVVDEAHHLVWSEDAPSREYQAIEQLAEHVPGVLLLTATPEQLGMESHFARLRLLDPNRFHDFAQFVEEQKNYRPVADAVAMLLAGNKLSNDELNMLGEMIGEQDIEPLLQAANSDSEDAQSARQELVSMLMDRHGTSRVLFRNTRNGVKGFPKRELHTIKLPLPTQYQTAIKVSGIMGARKSAEDRARDMLYPERIYQEFEGDNATWWNFDPRVEWLMGYLTSHRSQKVLVICAKAATALQLEQVLREREGILAAVFHEGMSIIERDRAAAWFAEEDTGAQVLLCSEIGSEGRNFQFASHMVMFDLPFNPDLLEQRIGRLDRIGQAHDIQIHVPYLEKTAQSVLVRWYHEGLDAFEHTCPTGRTIYDSVYNDLINYLASPDQTEGFDDLIKSCREQHEALKAQLEQGRDRLLEIHSNGGEKAQALAESIEEQDDDTNLIAFAMNLFDIIGINQDDRGDNMIVLTPSDHMLVPDFPGLSEDGITITFDREVALAREDAQFITWEHPLIRNGLDLILSGDTGSSTISLLKNKALPVGTLLVELIYVVEAQAPKQLQLNRFLPPTPVRMLLDKNGNNLAAQVEFETFNRQLNAVNRHTGSKLVNAVQQDVHAILQLGEAQIEKSARALIDAARNEADEKLSAELSRLEALRAVNPNIRDDELTAIESNRQQVMESLDQAGWRLDALRLIVVTHQ,not soluble
16,MSLQVLDRVELYLVKTPLPAPHAPSWIPGTIRTHVSMCIVRFITDDGVEGWSGFPAAGRERAGLGDLLAGLFLGQEAGDIDKLSERIQIMAAGGNFNWWLEPAFWDIKAKSAGLPLYKLLGGTDDRIRLYASSGELRDPGARREEAEARLAEGFDTMKIRVHDFDEAVDIDHISDIARHMQGRMRISVDCNQAFRLTQNGDAPLWSLDRAKRFVDAAADVGLAWVEEPLFGEWHEEIARLTTYSRVPVAGGELHVMGYRELARMMKMGCYNIFQPDAMWAGGITQCLKVAALCWQEGIRFTPHCWSNGFGFIANAHVFAASGFAGEELFEYPLSPPGWTPEGRDQIFSEPFLHENGWFAMPQTPGLGFEINQETLEKHGQCFFRASRNSTHWMPEALPAEGHHHHHH,soluble
17,MSEKDFVQVAKLGKTVGLKGYVKLHNLSDFSSQFKKDATFFIKNTKEMLKIKHYNANNSTVLFENYEDIEKAKELTNLILFQSIEKSRQTCKLKKDEFFYFDILECEVFEEDKRLGKVVDILETGASYLFEIQSDEKWVEKKYPKIFFIPYLDKFVKNIDIEKRQIFCTQDAFLILENSLEHHHHHH,soluble
18,MLSKNLLEALNDQMNHEYFAAHAYMAMAAYCDKESYEGFANFFIQQAKEERFHGQKIYNYINDRGAHAEFRAVSAPKIDFSSILETFKDSLSQEQEVTRRFYNLSEIARQDKDYATISFLNWFLDEQVEEESMFETHINYLTRIGDDSNALYLYEKELGARTFDEE,not soluble
19,MSEPIRVLVTGAAGQIAYSLLYSIGNGSVFGKDQPIILVLLDITPMMGVLDGVLMELQDCALPLLKDVIATDKEDVAFKDLDVAILVGSMPRREGMERKDLLKANVKIFKSQGAALDKYAKKSVKVIVVGNPANTNCLTASKSAPSIPKENFSCLTRLDHNRAKAQIALKLGVTANDVKNVIIWGNHSSTQYPDVNHAKVKLQGKEVGVYEALKDDSWLKGEFVTTVQQRGAAVIKARKLSSAMSAAKAICDHVRDIWFGTPEGEFVSMGVISDGNSYGVPDDLLYSFPVVIKNKTWKFVEGLPINDFSREKMDLTAKELTEEKESAFEFLSSA,soluble
